The values below come from article PMC6392501.

For test [1], the target named is C-terminal coiled-coil of hTMEM266 (residues 224–289) (human) (UniProt Q2M3C6). Description: non-reducing SDS-PAGE; purified coiled-coil run on SDS-PAGE with or without 2-ME; single species (monomer) with 2-ME, additional band at ~15 kDa without.
Test [2] has as its target C-terminal twin-Strep-tagged hTMEM266 (human) (UniProt Q2M3C6). Description: cross-linking; DSS (varying concentration) applied to intact HEK 293T cells expressing Strep-tagged hTMEM266; membrane fractions on SDS-PAGE; Western blot with anti-Strep antibody. On the technique in general: In western blotting, separated proteins are transferred to a membrane and probed.
Test [3] shares this target. Kind of test: cross-linking; air oxidation (disulfide) of membrane fractions of HEK 293T cells expressing Strep-tagged hTMEM266; 10 mM NEM; SDS-PAGE with or without 2-ME; Western blot with anti-Strep antibody.

One may read the stoichiometry N as a count of units in the complex or per binding partner. As for “C-terminal coiled-coil of hTMEM266 (residues 224–289) (from UniProt Q2M3C6 224-289) (domain or fragment)”, in test [1], the stoichiometry N came out at 2.

Turning to “C-terminal twin-Strep-tagged hTMEM266 (from UniProt Q2M3C6 1-523) (natural protein)”, the stoichiometry N in test [2] and in test [3] was 2 each time.
